Columns and labels:
Conditions in all cases: tags: N-terminal His-tag
His-tagged HMGB1 [1] = biological target: T1, His-tagged HMGB1 (UniProt P09429 P09429:1-215); test: SPR; 200 nM protein, 500 mM NaCl
Protocol: (§1) First, a sensor chip (trade name: Sensor Chip SA, manufactured by GE Heathcare) specially made for a BIACORE was set on the aforementioned BLACORE (registered trademark) X. Biotinylate deoxythymidine (5 μmol/L) was injected into the flow cell 2 of the aforementioned sensor chip using a running buffer and subjected to binding until the signal intensity (RU: resonance unit) reached about 1000 RU. For the aforementioned biotinylated deoxythymidine, 20-base-long deoxythymidine in which the 5′ end was biotinylated was used. Then, 10 μg/mL of an RNA aptamer was injected at a flow rate of 20 μL/min for 1 min into the aforementioned flow cells 1 and 2 of the aforementioned chip using a running buffer and subjected to binding until the signal intensity reached about 1000 RU. Next, 675 nmol/L of the aforementioned His-tag-added HMGB1 was injected at a flow rate of 20 μL/min for 30 sec using the aforementioned running buffer, and under the same conditions the aforementioned running buffer was allowed to flow continuously for washing. Simultaneously with the injection of the aforementioned His-tag-added HMGB1 and washing with the aforementioned running buffer, signal intensity was measured. The aforementioned running buffer was composed of 20 mmol/L of HEPES, 500 mmol/L of NaCl, 0.1 mmol/L of MgCl₂, and 0.1% Triton X-100 (registered trademark), with the pH thereof being 7.2. As a blocking agent for suppressing nonspecific binding, tRNA was used in a concentration of 1 mg/mL. In a comparative example, signal intensity was measured in the same manner except that the aforementioned comparative example RNA was used in place of the aforementioned example RNA aptamers.
An analysis of ability to bind to His-tag-added HMGB1 was carried out in the same manner as in (2) above of the aforementioned Example 1 except that the aforementioned fluorinated RNA aptamers were used, the concentration of His-tag-added HMGB1 was 200 nmol/L, and the injection time of the aforementioned His-tag-added HMGB1 was 60 seconds. Also, an analysis was carried out in the same manner on the aforementioned 2′F-40N and unmodified R8c6_{—}1 that was not fluorinated.

His-tagged HMGB1 [2] = biological target: T1, His-tagged HMGB1; test: SPR; 635 nM protein, 500 mM NaCl
Protocol: as §1
An analysis of ability to bind to His-tag-added HMGB1 was carried out in the same manner as in (2) above of the aforementioned Example 1 except that the aforementioned RNA aptamers were used, the concentration of the aforementioned His-tag-added HMGB1 was 635 nmol/L, and the injection time of the aforementioned His-tag-added HMGB1 was 60 seconds. […]

His-tagged HMGB1 [3] = biological target: T1, His-tagged HMGB1; test: SPR; 160 nM protein
Protocol: as §1
An analysis of ability to bind to His-tag added HMGB1 was carried out in the same manner as in (2) above of the aforementioned Example 1 except that the aforementioned RNA aptamers were used, and the concentration of the aforementioned His-tag-added HMGB1 was 160 nmol/L. Also, an analysis was carried on the aforementioned 40N as a comparative example in the same manner. FIGS. 12 and 13 show the results.

His-tagged HMGB1 [4] = biological target: T1, His-tagged HMGB1; test: SPR; 200 nM protein; comparable to unmodified R8c6_1 at 150 mM NaCl
His-tagged HMGB1 [5] = biological target: T1, His-tagged HMGB1; test: SPR; 200 nM protein, 150 mM NaCl; excellent binding
Protocol: as §1, with “675 nmol/L of the aforementioned His-tag-added HMGB1 was injected at a flow rate” left out, “The aforementioned running buffer was composed of 20 mmol/L of HEPES, 500 mmol/L of NaCl, 0.1 mmol/L of MgCl₂, and 0.1% Triton X-100 (registered trademark), with the pH thereof being 7.2. As a blocking agent for suppressing nonspecific binding, tRNA was used in a concentration of 1 mg/mL.” left out, “aptamers. […]” for “aptamers.”

His-tagged HMGB1 [6] = biological target: T1, His-tagged HMGB1; test: SPR; 150 nM protein; excellent binding
Protocol: (§2) The ability of each of the aforementioned RNA aptamers to bind to HMGB1 in which His-tag was added to the N-terminus (His-tag-added HMGB1) was examined. For the analysis of the aforementioned binding ability, a BIACORE (registered trademark) X (manufactured by GE Healthcare) was used according to its instruction manual.
as §1, with “675 nmol/L of the aforementioned His-tag-added HMGB1 was injected at a flow rate” left out

His-tagged HMGB1 [7] = biological target: T1, His-tagged HMGB1; test: SPR; superior to R8c6_1; 160 nM protein
Protocol: as §1, with “675 nmol/L of the aforementioned His-tag-added HMGB1 was injected at a flow rate” left out, “The aforementioned running buffer was composed of 20 mmol/L of HEPES, 500 mmol/L of NaCl, 0.1 mmol/L of MgCl₂, and 0.1% Triton X-100 (registered trademark), with the pH thereof being 7.2. As a blocking agent for suppressing nonspecific binding, tRNA was used in a concentration of 1 mg/mL.” left out, “aptamers. […]” for “aptamers.”

His-tagged HMGB1 [8] = biological target: T1, His-tagged HMGB1; test: SPR; 150 nM protein; listed in Table 7
Protocol: as §2
First, a sensor chip (trade name: Sensor Chip SA, manufactured by GE Heathcare) specially made for a BIACORE was set on the aforementioned BLACORE (registered trademark) X. Biotinylate deoxythymidine (5 μmol/L) was injected into the flow cell 2 of the aforementioned sensor chip using a running buffer and subjected to binding until the signal intensity (RU: resonance unit) reached about 1000 RU. For the aforementioned biotinylated deoxythymidine, 20-base-long deoxythymidine in which the 5′ end was biotinylated was used. […] Simultaneously with the injection of the aforementioned His-tag-added HMGB1 and washing with the aforementioned running buffer, signal intensity was measured. […] In a comparative example, signal intensity was measured in the same manner except that the aforementioned comparative example RNA was used in place of the aforementioned example RNA aptamers.

His-tagged HMGB1 [9] = biological target: T1, His-tagged HMGB1; test: SPR; comparable to unmodified R8c6_1 at 500 and 150 mM NaCl

T1 sequence (P09429 whole entry, one chain of several): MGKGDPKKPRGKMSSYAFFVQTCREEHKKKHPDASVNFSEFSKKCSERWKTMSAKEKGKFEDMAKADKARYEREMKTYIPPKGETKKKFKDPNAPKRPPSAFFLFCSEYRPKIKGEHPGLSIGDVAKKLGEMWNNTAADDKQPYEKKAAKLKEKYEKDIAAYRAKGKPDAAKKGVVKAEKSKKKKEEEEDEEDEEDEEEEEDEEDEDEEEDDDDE

B1: 2'F-R8c6_1-15 (ssRNA)
RNA: GGGCAGAGUACAGUAAGACACGUAGCACCAGUCUGACGUUUGUCGUCAGUGCCUGGACGUGCAGU
modifications: 2'-F on all C and U
binding result (His-tagged HMGB1 [1]): binds

B2: R8c6_1-3 (ssRNA)
RNA: GGGACGCUCACGUACGCUCAGAGUACAGUAAGACACGUAGCACCAGUCUGACGUUUGUCGUCAGUGCCUGGACGUGC
binding result (His-tagged HMGB1 [2]): binds

B3: R8c6_1-18-S4 (ssRNA)
RNA: GGGAGUACAGUAAGACACGUAGCACCAGUCGUUUGUCGUGCCUGGACGUGCAGU
binding result (His-tagged HMGB1 [3]): binds

B4: 2'F-R8c6_1 (2'F-CU-R8c6_1) (ssRNA)
RNA: GGGACGCUCACGUACGCUCAGAGUACAGUAAGACACGUAGCACCAGUCUGACGUUUGUCGUCAGUGCCUGGACGUGCAGU
modifications: 2'-F on all C and U
binding result (His-tagged HMGB1 [4]): binds

B5: 2'F-U-R8c6_1 (ssRNA)
RNA: GGGACGCUCACGUACGCUCAGAGUACAGUAAGACACGUAGCACCAGUCUGACGUUUGUCGUCAGUGCCUGGACGUGCAGU
modifications: 2'-F on all U
binding result (His-tagged HMGB1 [5]): binds

B6: 2'F-C-R8c6_1 (ssRNA)
RNA: GGGACGCUCACGUACGCUCAGAGUACAGUAAGACACGUAGCACCAGUCUGACGUUUGUCGUCAGUGCCUGGACGUGCAGU
modifications: 2'-F on all C
binding result (His-tagged HMGB1 [5]): binds

GGGACAGUAAGACACGUAGCACCAGUGCCUGGACGUGCAGU (ssRNA, 2'-F on all C and U) [2'F-R8c6_1-21-S8]
binding result (His-tagged HMGB1 [6]): binds

B7: 2'F-R8c6_1-21 (ssRNA)
RNA: GGGACAGUAAGACACGUAGCACCAGUCUGACGUUUGUCGUCAGUGCCUGGACGUGCAGU
modifications: 2'-F on all C and U
binding result (His-tagged HMGB1 [1]): binds

GGGCACGUAGCACCAGUCUGACGUUUGUCGUCAGUGCCUGGACGUGCAGU (ssRNA) [R8c6_1-30]
binding result (His-tagged HMGB1 [3]): binds

B8: R8c6_1-25 (ssRNA)
RNA: GGGUAAGACACGUAGCACCAGUCUGACGUUUGUCGUCAGUGCCUGGACGUGCAGU
binding result (His-tagged HMGB1 [7]): binds

B9: 2'F-R8c6_1-25 (ssRNA)
RNA: GGGUAAGACACGUAGCACCAGUCUGACGUUUGUCGUCAGUGCCUGGACGUGCAGU
modifications: 2'-F on all C and U
binding result (His-tagged HMGB1 [6]): binds

B10: R8c6_1-18-S2 (ssRNA)
RNA: GGGAGUACAGUAAGACACGUAGCACCAGUCGCGUUUGUCGCGUGCCUGGACGUGCAGU
binding result (His-tagged HMGB1 [7]): binds

GGGUAAGACACGUAGCACCAGUGUGCCUGGACGUGCGU (ssRNA, 2'-F on all C and U) [2'F-R8c6_1-25-S6A3]
binding result (His-tagged HMGB1 [8]): binds

GGGAGUACAGUAAGACACGUAGCACCAGUGUGCCUGGACGUGCAGU (ssRNA) [R8c6_1-18-S6]
binding result (His-tagged HMGB1 [3]): binds

GGGAGUACAGUAAGACACGUAGCACCAGUGUGCCUGGACGUGCAGU (ssRNA, 2'-F on all C and U) [2'F-R8c6_1-18-S6]
binding result (His-tagged HMGB1 [6]): binds

GGGUAGCACCAGUCUGACGUUUGUCGUCAGUGCCUGGACGUGCACC (ssRNA) [R8c6_1-34CC]
binding result (His-tagged HMGB1 [3]): binds

B11: R8c6_1-1 (ssRNA)
RNA: GGGACGCUCACGUACGCUCAGAGUACAGUAAGACACGUAGCACCAGUCUGACGUUUGUCGUCAGUGCCUGGACGUGCAG
binding result (His-tagged HMGB1 [2]): binds

B12: 2'F-R8c6_1-1 (ssRNA)
RNA: GGGACGCUCACGUACGCUCAGAGUACAGUAAGACACGUAGCACCAGUCUGACGUUUGUCGUCAGUGCCUGGACGUGCAG
modifications: 2'-F on all C and U
binding result (His-tagged HMGB1 [1]): binds

B13: 2'F-R8c6_1-18 (ssRNA)
RNA: GGGAGUACAGUAAGACACGUAGCACCAGUCUGACGUUUGUCGUCAGUGCCUGGACGUGCAGU
modifications: 2'-F on all C and U
binding result (His-tagged HMGB1 [9]): binds

GGGACAGUAAGACACGUAGCACCAGUGUGCCUGGACGUGCAGU (ssRNA, 2'-F on all C and U) [2'F-R8c6_1-21-S6]
binding result (His-tagged HMGB1 [6]): binds

B14: R8c6_1-4 (ssRNA)
RNA: GGGACGCUCACGUACGCUCAGAGUACAGUAAGACACGUAGCACCAGUCUGACGUUUGUCGUCAGUGCCUGGACGUG
binding result (His-tagged HMGB1 [2]): binds

B15: 2'F-R8c6_1-4 (ssRNA)
RNA: GGGACGCUCACGUACGCUCAGAGUACAGUAAGACACGUAGCACCAGUCUGACGUUUGUCGUCAGUGCCUGGACGUG
modifications: 2'-F on all C and U
binding result (His-tagged HMGB1 [1]): binds

— US20120208867, “HMGB1 BINDING NUCLEIC ACID MOLECULE AND APPLICATIONS THEREOF” (published 2012)
